The target in one assay is T1, Cynomolgus MCSP D3 (cynomolgus, UniProt Q6UVK1 1582-2224 (human entry), limits assumed).
T1 construct: Soluble analyte in SPR
T1 chain: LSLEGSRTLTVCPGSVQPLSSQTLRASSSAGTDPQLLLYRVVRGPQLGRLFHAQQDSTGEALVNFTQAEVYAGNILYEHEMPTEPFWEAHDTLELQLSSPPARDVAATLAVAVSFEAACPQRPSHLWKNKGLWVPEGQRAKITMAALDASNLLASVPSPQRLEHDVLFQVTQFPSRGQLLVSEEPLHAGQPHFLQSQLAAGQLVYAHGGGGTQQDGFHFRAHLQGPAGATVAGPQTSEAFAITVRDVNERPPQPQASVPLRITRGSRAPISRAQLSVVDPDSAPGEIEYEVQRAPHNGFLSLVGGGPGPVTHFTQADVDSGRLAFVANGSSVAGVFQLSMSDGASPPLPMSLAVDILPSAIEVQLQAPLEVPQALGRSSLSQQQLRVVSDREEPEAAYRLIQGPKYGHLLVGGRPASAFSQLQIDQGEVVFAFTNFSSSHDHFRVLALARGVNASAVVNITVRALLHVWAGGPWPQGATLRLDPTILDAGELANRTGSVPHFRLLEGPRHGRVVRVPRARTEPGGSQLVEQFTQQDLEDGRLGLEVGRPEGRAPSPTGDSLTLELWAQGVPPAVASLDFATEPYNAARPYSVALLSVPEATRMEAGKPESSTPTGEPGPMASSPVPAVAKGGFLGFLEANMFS
In words: SPR Biacore T200, 25 C, IgG captured on anti-human Fab, MCSP D3 as analyte, 1:1 Langmuir fit. The procedure:
(§1) IgGs were captured on a CM5 sensorchip surface with immobilized anti human Fab. Capture IgG was coupled to the sensorchip surface by direct immobilization of around 10,000 resonance units (RU) at pH 5.0 using the standard amine coupling kit (Biacore, Freiburg/Germany). IgGs are captured for 60 s at 30 nM with 10 μl/min. Human and cynomolgus MCSP D3 were passed at a concentration of 0.49-1000 nM with a flowrate of 30 μl/min through the flow cells over 180 s. The dissociation is monitored for 210 s. Bulk refractive index differences were corrected for by subtracting the response obtained on reference flow cell. Here, the antigens were flown over a surface with immobilized anti-human Fab antibody but on which HBS-EP has been injected rather than anti MCSP IgGs.

The next assay has as its target T2, Human MCSP D3 (human, UniProt Q6UVK1 1582-2224).
T2 construct: Soluble analyte in SPR; The selection antigen was hu-MCSP(D3 domain)-avi-his; also called hu-MCSP(D3 domain)-avi-his
T2 sequence: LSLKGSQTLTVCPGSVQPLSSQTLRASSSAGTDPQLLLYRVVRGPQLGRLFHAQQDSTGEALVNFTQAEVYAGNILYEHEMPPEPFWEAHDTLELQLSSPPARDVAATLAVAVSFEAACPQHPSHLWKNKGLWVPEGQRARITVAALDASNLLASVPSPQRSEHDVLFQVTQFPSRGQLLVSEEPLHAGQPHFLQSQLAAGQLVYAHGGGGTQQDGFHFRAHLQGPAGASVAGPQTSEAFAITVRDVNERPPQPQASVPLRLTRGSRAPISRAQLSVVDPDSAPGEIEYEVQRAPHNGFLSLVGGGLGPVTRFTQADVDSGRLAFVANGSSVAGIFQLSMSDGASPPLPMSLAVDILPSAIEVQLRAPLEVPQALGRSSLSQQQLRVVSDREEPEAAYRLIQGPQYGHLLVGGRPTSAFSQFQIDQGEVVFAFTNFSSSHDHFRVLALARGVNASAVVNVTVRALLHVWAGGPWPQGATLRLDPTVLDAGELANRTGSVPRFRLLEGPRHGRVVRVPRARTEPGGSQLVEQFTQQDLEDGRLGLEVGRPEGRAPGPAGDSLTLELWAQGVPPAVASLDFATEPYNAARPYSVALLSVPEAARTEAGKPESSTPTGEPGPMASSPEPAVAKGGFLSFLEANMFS
The assay is described as above. The procedure: as §1

B1: M4-3 ML2 (parental) (antibody, human IgG1, kappa, V domains shown)
VH: QVQLQESGPGLVKPSQTLSLTCTVSGGSITSGYYWNWIRQHPGKGLEWIGYITYDGSNNYNPSLKSRVTISRDTSKNQFSLKLSSVTAADTAVYYCADFDYWGQGTLVTVSS
VL: DIQMTQSPSSLSASVGDRVTITCRASQGIRNYLNWYQQKPGKAPKLLIYYTSSLHSGVPSRFSGSGSGTDFTLTISSLQPEDFATYYCQQYSKLPWTFGQGTKVEIKR
notes: Non-matured parental humanized IgG; also called humanized antibody M4-3 ML2
On to B1, for which the Kd with Cynomolgus MCSP D3 turned out to be 82.5 nM; in the assay with Human MCSP D3, 24.2 nM.

B2: M4-3 (C1) ML2 (antibody, human IgG1, V domains shown)
VH: QVQLQESGPGLVKPSQTLSLTCTVSGGSITSGYYWNWIRQHPGKGLEWIGYITFDGSNNYNPSLKSRVTISRDTSKNQFSLKLSSVTAADTAVYYCADFDYWGQGTLVTVSS
VL: DIQMTQSPSSLSASVGDRVTITCRASQGIRNYLNWYQQKPGKAPKLLIYYTSSLHSGVPSRFSGSGSGTDFTLTISSLQPEDFATYYCQQYSKLPWTFGQGTKVEIK
As for B2, the values for the Kd in the assay with Cynomolgus MCSP D3 and with Human MCSP D3 were 9.8 nM and 7.2 nM, respectively.

B3: M4-3 (A7) ML2 (C5) (antibody, human IgG1, V domains shown)
VH: QVQLQESGPGLVKPSQTLSLTCTVSGGSITDGYYWNWIRQHPGKGLEWIGYITFDGRNNYNPSLKSRVTISRDTSKNQFSLKLSSVTAADTAVYYCADFDYWGQGTLVTVSS
VL: DIQMTQSPSSLSASVGDRVTITCRASRGIREYLNWYQQKPGKAPKLLIYYTGSLHSGVPSRFSGSGSGTDFTLTISSLQPEDFATYYCQQYSELPWTFGQGTKVEIK
Regarding B3, the Kd in the assay with Cynomolgus MCSP D3 stood at 1.1 nM; with Human MCSP D3, 0.002 nM.

B4: M4-3 ML2 (C5/G3) (antibody, human IgG1, V domains shown)
VH: QVQLQESGPGLVKPSQTLSLTCTVSGGSITSGYYWNWIRQHPGKGLEWIGYITYDGSNNYNPSLKSRVTISRDTSKNQFSLKLSSVTAADTAVYYCADFDYWGQGTLVTVSS
VL: DIQMTQSPSSLSASVGDRVTITCRASRGIREYLNWYQQKPGKAPKLLIYYTGSLHSGVPSRFSGSGSGTDFTLTISSLQPEDFATYYCQQYSALPWTFGQGTKVEIK
Take B4: the results for the Kd with Cynomolgus MCSP D3 and in the assay with Human MCSP D3 were 12.8 nM and 4.2 nM, respectively.

B5: M4-3 (C1) ML2 (G3) (antibody, human IgG1, kappa, V domains shown)
VH: QVQLQESGPGLVKPSQTLSLTCTVSGGSITSGYYWNWIRQHPGKGLEWIGYITFDGSNNYNPSLKSRVTISRDTSKNQFSLKLSSVTAADTAVYYCADFDYWGQGTLVTVSS
VL: DIQMTQSPSSLSASVGDRVTITCRASQGIRNYLNWYQQKPGKAPKLLIYYTSSLHSGVPSRFSGSGSGTDYTLTISSLQPEDFATYYCQQYSALPWTFGQGTKVEIKR
Take B5: the Kd was found to be 1.3 nM with Cynomolgus MCSP D3 and 1.6 nM with Human MCSP D3.

B6: M4-3 (C1) ML2 (C5) (antibody, human IgG1, V domains shown)
VH: QVQLQESGPGLVKPSQTLSLTCTVSGGSITSGYYWNWIRQHPGKGLEWIGYITFDGSNNYNPSLKSRVTISRDTSKNQFSLKLSSVTAADTAVYYCADFDYWGQGTLVTVSS
VL: DIQMTQSPSSLSASVGDRVTITCRASRGIREYLNWYQQKPGKAPKLLIYYTGSLHSGVPSRFSGSGSGTDFTLTISSLQPEDFATYYCQQYSELPWTFGQGTKVEIK
As to B6, the Kd is 0.12 nM with Cynomolgus MCSP D3 and 0.003 nM in the assay with Human MCSP D3.

B7: M4-3 (B7) ML2 (antibody, human IgG1, V domains shown)
VH: QVQLQESGPGLVKPSQTLSLTCTVSGGSITSGYYWNWIRQHPGKGLEWIGYITFDGINNYNPSLKSRVTISRDTSKNQFSLKLSSVTAADTAVYYCADFDYWGQGTLVTVSS
VL: DIQMTQSPSSLSASVGDRVTITCRASQGIRNYLNWYQQKPGKAPKLLIYYTSSLHSGVPSRFSGSGSGTDFTLTISSLQPEDFATYYCQQYSKLPWTFGQGTKVEIK
For the molecule B7, the Kd with Cynomolgus MCSP D3 stood at 9.9 nM; with Human MCSP D3, 12.6 nM.

B8: M4-3 (D6) ML2 (antibody, human IgG1, V domains shown)
VH: QVQLQESGPGLVKPSQTLSLTCTVSGGSITSGYYWNWIRQHPGKGLEWIGYITFDGKNNYNPSLKSRVTISRDTSKNQFSLKLSSVTAADTAVYYCADFDYWGQGTLVTVSS
VL: DIQMTQSPSSLSASVGDRVTITCRASQGIRNYLNWYQQKPGKAPKLLIYYTSSLHSGVPSRFSGSGSGTDFTLTISSLQPEDFATYYCQQYSKLPWTFGQGTKVEIK
In the case of B8, the Kd with Cynomolgus MCSP D3 was 24.6 nM; with Human MCSP D3 it was 15.1 nM.

B9: M4-3 (B8) ML2 (antibody, human IgG1, V domains shown)
VH: QVQLQESGPGLVKPSQTLSLTCTVSGGSITSGYYWNWIRQHPGKGLEWIGYITFDGRNNYNPSLKSRVTISRDTSKNQFSLKLSSVTAADTAVYYCADFDYWGQGTLVTVSS
VL: DIQMTQSPSSLSASVGDRVTITCRASQGIRNYLNWYQQKPGKAPKLLIYYTSSLHSGVPSRFSGSGSGTDFTLTISSLQPEDFATYYCQQYSKLPWTFGQGTKVEIK
In the case of B9, the Kd in the assay with Cynomolgus MCSP D3 was 28.8 nM; with Human MCSP D3, 19.2 nM.

B10: M4-3 (A7) ML2 (E10) (antibody, human IgG1, V domains shown)
VH: QVQLQESGPGLVKPSQTLSLTCTVSGGSITDGYYWNWIRQHPGKGLEWIGYITFDGRNNYNPSLKSRVTISRDTSKNQFSLKLSSVTAADTAVYYCADFDYWGQGTLVTVSS
VL: DIQMTQSPSSLSASVGDRVTITCRASYGIRGYLNWYQQKPGKAPKLLIYYTSSLHSGVPSRFSGSGSGTDFTLTISSLQPEDFATYHCQQYSKLPWTFGQGTKVEIK
Regarding B10, the figures for the Kd with Cynomolgus MCSP D3 and with Human MCSP D3 were 8.5 nM and 3.1 nM, respectively.

B11: M4-3 (C1) ML2 (E10) (antibody, human IgG1, V domains shown)
VH: QVQLQESGPGLVKPSQTLSLTCTVSGGSITSGYYWNWIRQHPGKGLEWIGYITFDGSNNYNPSLKSRVTISRDTSKNQFSLKLSSVTAADTAVYYCADFDYWGQGTLVTVSS
VL: DIQMTQSPSSLSASVGDRVTITCRASYGIRGYLNWYQQKPGKAPKLLIYYTSSLHSGVPSRFSGSGSGTDFTLTISSLQPEDFATYHCQQYSKLPWTFGQGTKVEIK
As for B11, the Kd in the assay with Cynomolgus MCSP D3 is 4.5 nM; with Human MCSP D3 it was 3.9 nM.

B12: M4-3 (A7) ML2 (antibody, human IgG1, V domains shown)
VH: QVQLQESGPGLVKPSQTLSLTCTVSGGSITDGYYWNWIRQHPGKGLEWIGYITFDGRNNYNPSLKSRVTISRDTSKNQFSLKLSSVTAADTAVYYCADFDYWGQGTLVTVSS
VL: DIQMTQSPSSLSASVGDRVTITCRASQGIRNYLNWYQQKPGKAPKLLIYYTSSLHSGVPSRFSGSGSGTDFTLTISSLQPEDFATYYCQQYSKLPWTFGQGTKVEIK
Turning to B12, the Kd came to 16.3 nM in the assay with Cynomolgus MCSP D3 and 7.1 nM with Human MCSP D3.

B13: M4-3 (A7) ML2 (G3) (antibody, human IgG1, V domains shown)
VH: QVQLQESGPGLVKPSQTLSLTCTVSGGSITDGYYWNWIRQHPGKGLEWIGYITFDGRNNYNPSLKSRVTISRDTSKNQFSLKLSSVTAADTAVYYCADFDYWGQGTLVTVSS
VL: DIQMTQSPSSLSASVGDRVTITCRASQGIRNYLNWYQQKPGKAPKLLIYYTSSLHSGVPSRFSGSGSGTDYTLTISSLQPEDFATYYCQQYSALPWTFGQGTKVEIK
B13: the Kd in the assay with Cynomolgus MCSP D3 was 1.5 nM; with Human MCSP D3, 0.009 nM.

B14: M4-3 ML2 (C5) (antibody, human IgG1, V domains shown)
VH: QVQLQESGPGLVKPSQTLSLTCTVSGGSITSGYYWNWIRQHPGKGLEWIGYITYDGSNNYNPSLKSRVTISRDTSKNQFSLKLSSVTAADTAVYYCADFDYWGQGTLVTVSS
VL: DIQMTQSPSSLSASVGDRVTITCRASRGIREYLNWYQQKPGKAPKLLIYYTGSLHSGVPSRFSGSGSGTDFTLTISSLQPEDFATYYCQQYSELPWTFGQGTKVEIK
Consider B14, for which the Kd in the assay with Cynomolgus MCSP D3 worked out at 5.7 nM; in the assay with Human MCSP D3, 0.8 nM.

B15: M4-3 ML2 (E10) (antibody, human IgG1, V domains shown)
VH: QVQLQESGPGLVKPSQTLSLTCTVSGGSITSGYYWNWIRQHPGKGLEWIGYITYDGSNNYNPSLKSRVTISRDTSKNQFSLKLSSVTAADTAVYYCADFDYWGQGTLVTVSS
VL: DIQMTQSPSSLSASVGDRVTITCRASYGIRGYLNWYQQKPGKAPKLLIYYTSSLHSGVPSRFSGSGSGTDFTLTISSLQPEDFATYHCQQYSKLPWTFGQGTKVEIK
As to B15, the figures for the Kd in the assay with Cynomolgus MCSP D3 and in the assay with Human MCSP D3 were 62.8 nM and 21.4 nM, respectively.

These data come from patent US20140242083A1 (Hoffmann-La Roche, published 2014).
